The values below are quoted from earlier work in publication PMC6273919.

The target in the data set is NF-kappa-B p50 (Homo sapiens) (UniProt P19838).
Chain of UniProt P19838 (P19838 1-433): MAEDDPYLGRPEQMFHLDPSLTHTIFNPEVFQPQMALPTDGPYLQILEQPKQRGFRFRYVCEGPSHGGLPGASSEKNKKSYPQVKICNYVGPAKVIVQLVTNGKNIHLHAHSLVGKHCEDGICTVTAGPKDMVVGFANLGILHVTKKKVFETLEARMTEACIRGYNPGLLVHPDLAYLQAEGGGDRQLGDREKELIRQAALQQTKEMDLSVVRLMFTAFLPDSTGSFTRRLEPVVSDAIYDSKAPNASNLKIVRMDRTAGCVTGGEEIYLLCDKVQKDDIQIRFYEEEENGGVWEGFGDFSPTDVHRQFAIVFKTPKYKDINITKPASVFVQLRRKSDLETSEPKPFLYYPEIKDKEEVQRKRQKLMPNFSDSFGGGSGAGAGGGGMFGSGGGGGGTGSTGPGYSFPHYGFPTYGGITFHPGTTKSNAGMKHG

As for Melittin (from UniProt P01501), the Kd was 12 nM.
